Experimental data as given in paper PMC12753105.

B1: T10 (ssDNA)
DNA: TTTTTTTTTT
B2: SL7 (structured_RNA)
RNA: ACGUGGCUUUGGAGACUCCGUGGAGGAGGUCUUAUCAGAGGCACGU

Experiments:
[1] = target: T1, N (ancestral) (SARS-CoV-2 (Wuhan-Hu-1), UniProt P0DTC9 1-419); assay: SV-AUC; […], pH 7.50 ([…], pH 7.4; temperature not given; conditions: protein: recombinant; tags: 6xHis-TEV, cleaved; chain copies: 2; single strand
[2] = target: T1, N (ancestral); assay: SV-AUC, mass photometry; […], pH 7.50 ([…], pH 7.4; temperature not given; conditions: protein: recombinant; tags: 6xHis-TEV, cleaved; chain copies: 2; hairpin

Binder	binding result [1]	binding result [2]
B1	binds	
B2		binds
